T1: VEGFR-3-Fc (UniProt P35916 25-328)
T1 construct: domain: first three Ig domains; conditioned supernatant of 293T cells; also called VEGFR-3-Fc fusion protein; not shown: Fc fragment of the pIg vector
T1 sequence (looked up): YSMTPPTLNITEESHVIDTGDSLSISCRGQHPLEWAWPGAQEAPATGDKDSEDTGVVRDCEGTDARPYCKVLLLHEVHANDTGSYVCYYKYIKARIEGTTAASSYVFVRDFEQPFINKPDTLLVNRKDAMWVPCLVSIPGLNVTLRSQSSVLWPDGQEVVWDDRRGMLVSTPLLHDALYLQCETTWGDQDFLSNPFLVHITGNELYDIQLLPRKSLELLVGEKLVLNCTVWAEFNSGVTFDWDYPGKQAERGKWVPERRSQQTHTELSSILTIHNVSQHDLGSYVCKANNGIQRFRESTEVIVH


Assays:
Assay in all cases: receptor-Fc IP
[1] = biological target: T2, VEGFR-2-Fc (UniProt P35968 20-322)
T2 construct: domain: first 3 Ig domains; conditioned supernatant of 293T cells; also called VEGFR-2-Fc fusion protein; not shown: Fc fragment of the pIg vector
Procedure: (§1) The binding assay procedure was identical to the immunoprecipitation using pentahistidine antibody described in Example 2, apart from the composition of the immunoprecipitation (IP) mixes. The IP mixes used for the receptor binding analysis were as follows: For VEGFR-1 binding assays, the IP mix was phosphate buffered saline (PBS) containing 1.5% BSA, 0.06% Tween 20, 3 μg/ml heparin and 400 ng/ml VEGFR-1-Fc fusion protein (100 μl of this IP mix was added to 200 μl of sample supernatant); for VEGFR-2 binding assays, the IP mix was 82% conditioned cell supernatant from 293T cells transiently expressing VEGFR-2-Fc fusion protein in mixture with 18% of a PBS solution that contained 5% BSA, 0.2% Tween 20, and 10 μg/ml heparin (250 μl of IP mix was added to 200 μl of sample supernatant); and for VEGFR-3 binding assays, the IP mix was 82% conditioned cell supernatant from 293T cells transiently expressing VEGFR-3-Fc fusion protein, 18% of PBS containing 5% BSA, 0.2% Tween 20, and 10 μg/ml heparin (250 μl of IP mix was added to 200 μl of sample supernatant).

[2] = biological target: T3, VEGFR-1-Fc (UniProt P17948 27-338)
T3 construct: domain: first three Ig domains; expressed in Drosophila S2 cells, purified on Protein A sepharose; also called VEGFR-1-Fc fusion protein; not shown: Fc fragment from the Signal-pIgPlus vector
Procedure: as §1

[3] = biological target: T1, VEGFR-3-Fc
Procedure: as §1

T3 sequence (P17948 27-338): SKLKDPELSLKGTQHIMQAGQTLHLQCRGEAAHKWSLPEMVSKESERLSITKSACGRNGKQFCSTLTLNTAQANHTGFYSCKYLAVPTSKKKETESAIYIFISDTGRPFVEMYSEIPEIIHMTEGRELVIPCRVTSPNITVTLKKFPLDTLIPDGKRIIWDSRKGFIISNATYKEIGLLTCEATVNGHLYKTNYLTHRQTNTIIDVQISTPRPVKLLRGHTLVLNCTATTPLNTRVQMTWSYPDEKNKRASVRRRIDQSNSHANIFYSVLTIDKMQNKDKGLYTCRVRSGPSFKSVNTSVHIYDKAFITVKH
T2 sequence (P35968 20-322): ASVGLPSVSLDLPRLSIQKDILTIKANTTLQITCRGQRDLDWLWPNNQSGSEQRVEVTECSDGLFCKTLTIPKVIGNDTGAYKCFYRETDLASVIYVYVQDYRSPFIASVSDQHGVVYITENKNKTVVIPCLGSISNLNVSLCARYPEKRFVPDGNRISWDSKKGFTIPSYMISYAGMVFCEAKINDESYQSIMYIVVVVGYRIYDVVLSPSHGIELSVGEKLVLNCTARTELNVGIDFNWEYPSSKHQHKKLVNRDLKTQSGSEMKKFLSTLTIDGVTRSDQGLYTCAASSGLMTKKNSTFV

Binder	binding result [1]	binding result [2]	binding result [3]
41-7 (ligand) AHYNTEILKFMDVYQRSYCHPREVCIDVGKEYPDEIEYIFKPSCVPLMRCGGCCNSEGLQCVPTEESNITMQIMRIKPHQGQHIGEMSFANHTSCRCMSKLD	no binding	no binding	no binding
81-7 (ligand) AHYNTEILKFMDVYQRSYCHPIETLVDIFQEYPDEIEYIFKPSCVPLMRCGGCCNSEGLQCVPTEESNITMQIMRIKPHQGQHIGEMSFANHTSCRCMSKLD	binds	binds	no binding
83-7 (ligand) AHYNTEILKFMDVYQRSYCHPIETLVDIFQEYPDEIEYIFKPPCVSVYRCGGCCNSEGLQCVPTEESNITMQIMRIKPHQGQHIGEMSFANHTSCRCMSKLD	binds	binds	no binding
63-7 (ligand) GQNHHEVVKFMDVYQRSYCHPREVCIDVGKEYPDEIEYIFKPPCVSVYRCGGCCNSEGLQCVPTEESNITMQIMRIKPHQGQHIGEMSFANHTSCRCMSKLD	binds	no binding	binds
81-5 (ligand) AHYNTEILKFMDVYQRSYCHPIETLVDIFQEYPDEIEYIFKPSCVPLMRCGGCCNDEGLECVPTEESNITMQIMRIKPHQGQHIGEMSFANHTSCRCMSKLD	binds	binds	no binding
83-5 (ligand) AHYNTEILKFMDVYQRSYCHPIETLVDIFQEYPDEIEYIFKPPCVSVYRCGGCCNDEGLECVPTEESNITMQIMRIKPHQGQHIGEMSFANHTSCRCMSKLD	binds	binds	no binding
83-11 (ligand) AHYNTEILKFMDVYQRSYCHPIETLVDIFQEYPDEIEYIFKPPCVSVYRCGGCCNSEGLQCVPTEESNITMQIMRITVPLSQGPKPVTISFLQHNKCECRPKKD	binds	binds	no binding
83-15 (ligand, clone entry) AHYNTEILKFMDVYQRSYCHPIETLVDIFQEYPDEIEYIFKPPCVSVYRCGGCCNSEGLQCVPTEESNITMQIMRITVPLSQGPKPVTISFANHTSCRCMSKLDL	binds	binds	no binding
72-9 (ligand) GQNHHEVVKSIDNEWRKTQCMPREVCIDVGKEFGVATNTFFKPPCVSVYRCGGCCNDEGLECVPTEESNITMQIMRITVPLSQGPKPVTISFLQHNKCECRPKKD	no binding	no binding	no binding
81-3 (ligand) AHYNTEILKFMDVYQRSYCHPIETLVDIFQEYPDEIEYIFKPSCVPLMRCGGCCNSEGLQCVPTEESNITMQIMRIKPHQGQHIGEMSFLQHNKCECRPKKD	binds	binds	no binding

More lines, now with the values ahead:

binding result [1]	binding result [2]	binding result [3]	Binder
no binding	no binding	no binding	42-7 (ligand) AHYNTEILKFMDVYQRSYCHPREVCIDVGKEFGVATNTFFKPPCVSVYRCGGCCNSEGLQCVPTEESNITMQIMRIKPHQGQHIGEMSFANHTSCRCMSKLD
no binding	no binding	no binding	43-5 (ligand) AHYNTEILKFMDVYQRSYCHPREVCIDVGKEYPDEIEYIFKPPCVSVYRCGGCCNDEGLECVPTEESNITMQIMRIKPHQGQHIGEMSFANHTSCRCMSKLD
no binding	no binding	no binding	61-7 (ligand) GQNHHEVVKFMDVYQRSYCHPREVCIDVGKEYPDEIEYIFKPSCVPLMRCGGCCNSEGLQCVPTEESNITMQIMRIKPHQGQHIGEMSFANHTSCRCMSKLD
no binding	no binding	no binding	44-7 (ligand) AHYNTEILKFMDVYQRSYCHPREVCIDVGKEFGVATNTFFKPSCVPLMRCGGCCNSEGLQCVPTEESNITMQIMRIKPHQGQHIGEMSFANHTSCRCMSKLD
no binding	no binding	no binding	44-5 (ligand) AHYNTEILKFMDVYQRSYCHPREVCIDVGKEFGVATNTFFKPSCVPLMRCGGCCNDEGLECVPTEESNITMQIMRIKPHQGQHIGEMSFANHTSCRCMSKLD
no binding	no binding	no binding	61-5 (ligand) GQNHHEVVKFMDVYQRSYCHPREVCIDVGKEYPDEIEYIFKPSCVPLMRCGGCCNDEGLECVPTEESNITMQIMRIKPHQGQHIGEMSFANHTSCRCMSKLD
no binding	binds	no binding	83-9 (ligand) AHYNTEILKFMDVYQRSYCHPIETLVDIFQEYPDEIEYIFKPPCVSVYRCGGCCNDEGLECVPTEESNITMQIMRITVPLSQGPKPVTISFLQHNKCECRPKKD
no binding	binds	no binding	83-13 (ligand) AHYNTEILKFMDVYQRSYCHPIETLVDIFQEYPDEIEYIFKPPCVSVYRCGGCCNDEGLECVPTEESNITMQIMRITVPLSQGPKPVTISFANHTSCRCMSKLD
no binding	no binding	no binding	22-9 (ligand) AHYNTEILKSIDNEWRKTQCMPREVCIDVGKEFGVATNTFFKPPCVSVYRCGGCCNDEGLECVPTEESNITMQIMRITVPLSQGPKPVTISFLQHNKCECRPKKD
no binding	no binding	no binding	24-9 (ligand) AHYNTEILKSIDNEWRKTQCMPREVCIDVGKEFGVATNTFFKPSCVPLMRCGGCCNDEGLECVPTEESNITMQIMRITVPLSQGPKPVTISFLQHNKCECRPKKD
no binding	no binding	binds	32-9 (ligand) GQNHHEVVKSIDNEWRKTQCMPIETLVDIFQEFGVATNTFFKPPCVSVYRCGGCCNDEGLECVPTEESNITMQIMRITVPLSQGPKPVTISFLQHNKCECRPKKD
no binding	no binding	no binding	22-11 (ligand) AHYNTEILKSIDNEWRKTQCMPREVCIDVGKEFGVATNTFFKPPCVSVYRCGGCCNSEGLQCVPTEESNITMQIMRITVPLSQGPKPVTISFLQHNKCECRPKKD
binds	binds	no binding	83-1 (ligand) AHYNTEILKFMDVYQRSYCHPIETLVDIFQEYPDEIEYIFKPPCVSVYRCGGCCNDEGLECVPTEESNITMQIMRIKPHQGQHIGEMSFLQHNKCECRPKKD
binds	binds	no binding	83-3 (ligand) AHYNTEILKFMDVYQRSYCHPIETLVDIFQEYPDEIEYIFKPPCVSVYRCGGCCNSEGLQCVPTEESNITMQIMRIKPHQGQHIGEMSFLQHNKCECRPKKD

— patent US20080058263A1 (published 2008)
